Earlier results, collected in patent US20240209047A1, “GROWTH FACTOR CONJUGATES” (priority 2021, published 2024).

Tested on: non-healing diabetic ulcers
Conditions: treated for 20 weeks or until complete wound closure; placebo 25%

B1: PDGF: topical gel containing recombinant human PDGF-BB (Regranex®) (protein, UniProt P01127 82-190, looked up)
Platelet-derived growth …: SLGSLTIAEPAMIAECKTRTEVFEISRRLIDRTNANFLVWPPCVEVQRCSGCCNNRNVQCRPTQVQLRPVQVRKIEIVRKKPIFKKATVTLEDHLACKCETVAAARPVT
modifications: Platelet-derived growth factor subunit B topical gel (becaplermin)
For B1, the patients healed is given as 48%.
